Laboratory results taken from patent publication US20150344570A1 (published 2015).
Changes are numbered by the printed parent chain. Names and notes keep the numbering of the source.

T1: FcγRIIa H (FcγRIIa type H, His at position 131), extracellular domain with C-terminal His tag (human, UniProt P12318 34-217)
T1 construct: extracellular domain; also called FcgRIIa H; 2aH
T1 sequence (looked up): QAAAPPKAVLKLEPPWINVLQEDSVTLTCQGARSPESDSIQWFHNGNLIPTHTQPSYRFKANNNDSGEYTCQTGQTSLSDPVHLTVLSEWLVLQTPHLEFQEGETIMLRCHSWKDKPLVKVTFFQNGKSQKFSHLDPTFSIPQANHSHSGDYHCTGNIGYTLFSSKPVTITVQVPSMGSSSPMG

T2: FcγRIIa H (human, UniProt P12318 34-217)
T2 construct: extracellular domain; also called FcgRIIa H; FcγRIIa type H
T2 sequence (looked up): T1 sequence (looked up)

T3: FcγRIIb (human, UniProt P31994 43-217)
T3 construct: extracellular domain; also called FcgRIIb; 2b
T3 sequence (looked up): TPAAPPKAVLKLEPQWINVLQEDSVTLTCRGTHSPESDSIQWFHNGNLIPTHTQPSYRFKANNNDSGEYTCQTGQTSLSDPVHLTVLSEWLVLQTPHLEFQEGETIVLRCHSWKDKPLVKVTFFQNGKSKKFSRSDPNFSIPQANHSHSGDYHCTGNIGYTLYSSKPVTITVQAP

T4: FcγRIIb (human, UniProt P31994 43-217)
T4 construct: extracellular domain; also called FcgRIIb; 2b; not shown: His tag at the C terminus
T4 sequence (looked up): T3 sequence (looked up)

T5: FcγRIIa R (human, UniProt P12318 34-217)
T5 construct: extracellular domain; also called FcgRIIa R type; 2aR; not shown: His tag at the C terminus
T5 sequence (looked up): T1 sequence (looked up) with H134R

B1: GpH7-B3 variant I332_02A/GpL16-k0 (antibody, human IgG1, kappa)
heavy: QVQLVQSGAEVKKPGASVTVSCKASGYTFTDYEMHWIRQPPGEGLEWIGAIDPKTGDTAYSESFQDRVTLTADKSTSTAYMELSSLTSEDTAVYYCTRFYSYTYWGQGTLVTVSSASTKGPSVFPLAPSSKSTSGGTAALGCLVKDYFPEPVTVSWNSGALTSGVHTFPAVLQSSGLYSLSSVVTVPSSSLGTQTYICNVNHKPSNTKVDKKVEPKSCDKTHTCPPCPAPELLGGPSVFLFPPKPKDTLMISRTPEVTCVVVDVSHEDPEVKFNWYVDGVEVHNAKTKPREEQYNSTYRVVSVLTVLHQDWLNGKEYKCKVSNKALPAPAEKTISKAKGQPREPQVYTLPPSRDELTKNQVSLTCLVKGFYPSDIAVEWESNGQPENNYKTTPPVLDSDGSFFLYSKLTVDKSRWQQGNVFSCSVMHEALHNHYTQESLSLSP
light: DIVMTQSPLSLPVTPGEPASISCQASESLVHSNRNTYLHWYLQKPGQSPQLLIYKVSNRFSGVPDRFSGSGSGTDFTLKISRVEAEDVGVYYCSQNTHVPPTFGQGTKVEIERTVAAPSVFIFPPSDEQLKSGTASVVCLLNNFYPREAKVQWKVDNALQSGNSQESVTEQDSKDSTYSLSSTLTLSKADYEKHKVYACEVTHQGLSSPVTKSFNRGEC
notes: both H chains mutated; also called Ho Ab
B2: GpH7-B3 variant G236_10E/GpL16-k0 (antibody, human IgG1, kappa)
heavy: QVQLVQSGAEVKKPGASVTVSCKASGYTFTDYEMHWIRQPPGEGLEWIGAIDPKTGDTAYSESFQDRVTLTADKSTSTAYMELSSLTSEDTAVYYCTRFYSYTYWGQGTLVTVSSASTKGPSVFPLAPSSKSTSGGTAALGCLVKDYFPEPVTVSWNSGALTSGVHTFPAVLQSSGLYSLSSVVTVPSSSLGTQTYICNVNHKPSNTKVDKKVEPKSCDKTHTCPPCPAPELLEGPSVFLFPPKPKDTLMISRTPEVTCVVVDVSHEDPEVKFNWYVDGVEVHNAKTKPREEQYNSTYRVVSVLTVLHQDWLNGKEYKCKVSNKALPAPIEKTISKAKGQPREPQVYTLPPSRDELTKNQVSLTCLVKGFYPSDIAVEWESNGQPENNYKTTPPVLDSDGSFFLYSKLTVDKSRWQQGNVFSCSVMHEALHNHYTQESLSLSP
light: B1 light
notes: as for B1
B3: GpH7-B3 variant H268_09D/GpL16-k0 (antibody, human IgG1, kappa)
heavy: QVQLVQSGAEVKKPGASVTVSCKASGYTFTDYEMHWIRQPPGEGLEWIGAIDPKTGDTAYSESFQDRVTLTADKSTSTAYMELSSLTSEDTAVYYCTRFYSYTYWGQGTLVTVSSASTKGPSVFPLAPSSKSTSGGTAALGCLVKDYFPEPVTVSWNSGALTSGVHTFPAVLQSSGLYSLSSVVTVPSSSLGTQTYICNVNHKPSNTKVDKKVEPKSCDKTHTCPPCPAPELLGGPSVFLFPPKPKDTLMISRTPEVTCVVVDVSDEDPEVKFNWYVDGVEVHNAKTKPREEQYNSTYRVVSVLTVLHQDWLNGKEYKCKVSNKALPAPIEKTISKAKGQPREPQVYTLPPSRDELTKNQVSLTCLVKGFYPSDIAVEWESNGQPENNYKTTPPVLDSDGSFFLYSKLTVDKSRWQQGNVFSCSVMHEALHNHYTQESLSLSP
light: B1 light
notes: as for B1
B4: GpH7-B3 variant G236_03V/GpL16-k0 (antibody, human IgG1, kappa)
heavy: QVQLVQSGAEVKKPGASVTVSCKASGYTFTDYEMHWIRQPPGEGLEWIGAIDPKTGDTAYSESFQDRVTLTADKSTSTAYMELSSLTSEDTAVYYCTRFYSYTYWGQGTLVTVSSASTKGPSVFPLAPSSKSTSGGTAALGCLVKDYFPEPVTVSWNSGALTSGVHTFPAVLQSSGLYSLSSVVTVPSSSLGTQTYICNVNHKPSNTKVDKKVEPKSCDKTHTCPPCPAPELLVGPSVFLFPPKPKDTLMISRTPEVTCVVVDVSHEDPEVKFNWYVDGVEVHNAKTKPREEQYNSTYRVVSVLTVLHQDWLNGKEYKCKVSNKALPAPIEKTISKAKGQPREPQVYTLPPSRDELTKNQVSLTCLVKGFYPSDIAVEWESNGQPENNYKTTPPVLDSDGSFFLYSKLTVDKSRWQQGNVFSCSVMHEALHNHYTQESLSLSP
light: B1 light
notes: as for B1
B5: GpH7-B3 variant G236_07I/GpL16-k0 (antibody, human IgG1, kappa)
heavy: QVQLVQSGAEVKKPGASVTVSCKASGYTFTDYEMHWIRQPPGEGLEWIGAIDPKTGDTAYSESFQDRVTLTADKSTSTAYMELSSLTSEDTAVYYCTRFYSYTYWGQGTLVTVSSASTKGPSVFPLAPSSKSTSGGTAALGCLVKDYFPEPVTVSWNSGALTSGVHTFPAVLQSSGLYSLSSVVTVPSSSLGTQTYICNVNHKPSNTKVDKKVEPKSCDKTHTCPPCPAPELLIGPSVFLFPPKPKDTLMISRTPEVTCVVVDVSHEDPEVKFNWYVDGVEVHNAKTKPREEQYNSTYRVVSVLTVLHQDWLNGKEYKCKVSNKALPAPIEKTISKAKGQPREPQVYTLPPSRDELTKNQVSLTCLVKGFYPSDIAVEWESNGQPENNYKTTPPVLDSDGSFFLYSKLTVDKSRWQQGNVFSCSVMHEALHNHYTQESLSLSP
light: B1 light
notes: as for B1
B6: GpH7-B3 variant A330_12R/GpL16-k0 (antibody, human IgG1, kappa)
heavy: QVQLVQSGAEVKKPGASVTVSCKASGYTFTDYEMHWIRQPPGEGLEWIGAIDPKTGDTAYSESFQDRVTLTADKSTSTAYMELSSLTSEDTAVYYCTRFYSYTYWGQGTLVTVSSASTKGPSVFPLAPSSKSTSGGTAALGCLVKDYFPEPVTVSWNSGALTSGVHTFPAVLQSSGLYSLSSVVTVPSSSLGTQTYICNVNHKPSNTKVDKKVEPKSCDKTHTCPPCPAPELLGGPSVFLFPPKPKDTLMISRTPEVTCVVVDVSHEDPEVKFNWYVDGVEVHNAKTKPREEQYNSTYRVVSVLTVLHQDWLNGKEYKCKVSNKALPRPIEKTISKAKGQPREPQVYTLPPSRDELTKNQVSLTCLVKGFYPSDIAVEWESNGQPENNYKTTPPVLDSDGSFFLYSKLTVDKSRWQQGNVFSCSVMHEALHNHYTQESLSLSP
light: B1 light
notes: as for B1
B7: GpH7-B3 variant H268_10E/GpL16-k0 (antibody, human IgG1, kappa)
heavy: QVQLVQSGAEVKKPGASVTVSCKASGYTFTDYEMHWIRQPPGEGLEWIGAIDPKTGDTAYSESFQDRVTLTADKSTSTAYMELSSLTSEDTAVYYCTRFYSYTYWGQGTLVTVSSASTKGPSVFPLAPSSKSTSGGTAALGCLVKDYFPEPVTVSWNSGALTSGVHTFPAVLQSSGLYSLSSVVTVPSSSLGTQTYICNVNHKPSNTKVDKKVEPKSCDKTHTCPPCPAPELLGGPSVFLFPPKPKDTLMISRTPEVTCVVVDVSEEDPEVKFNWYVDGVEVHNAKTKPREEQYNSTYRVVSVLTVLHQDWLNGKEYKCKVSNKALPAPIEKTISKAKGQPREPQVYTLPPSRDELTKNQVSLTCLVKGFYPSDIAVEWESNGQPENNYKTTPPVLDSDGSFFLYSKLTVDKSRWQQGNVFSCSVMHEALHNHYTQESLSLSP
light: B1 light
notes: as for B1
B8: GpH7-A5/GpH7-B3 variant S267_19Q/GpL16-k0 (antibody, human IgG1, kappa)
heavy 1: not shown
heavy 2: not shown
light: B1 light
notes: Heterodimerized antibody, alteration in one H chain only; also called He Ab S267Q
B9: GpH7-A5/GpH7-B3 variant S267_08L/GpL16-k0 (antibody, human IgG1, kappa)
heavy 1: not shown
heavy 2: not shown
light: B1 light
notes: Heterodimerized antibody, alteration in one H chain only; also called He Ab S267L
B10: GpH7-A5/GpH7-B3 variant P238_16H/GpL16-k0 (antibody, human IgG1, kappa)
heavy 1: not shown
heavy 2: not shown
light: B1 light
notes: Heterodimerized antibody, alteration in one H chain only; also called He Ab P238H
B11: GpH7-A5/GpH7-B3 variant S298_06M/GpL16-k0 (antibody, human IgG1, kappa)
heavy 1: not shown
heavy 2: not shown
light: B1 light
notes: Heterodimerized antibody, alteration in one H chain only; also called He Ab S298M
B12: GpH7-A5/GpH7-B3 variant P271_10E/GpL16-k0 (antibody, human IgG1, kappa)
heavy 1: not shown
heavy 2: not shown
light: B1 light
notes: Heterodimerized antibody, alteration in one H chain only; also called He Ab P271E
B13: GpH7-A5/GpH7-B3 variant S239_03V/GpL16-k0 (antibody, human IgG1, kappa)
heavy 1: not shown
heavy 2: not shown
light: B1 light
notes: Heterodimerized antibody, alteration in one H chain only; also called He Ab S239V
B14: GpH7-A5/GpH7-B3 variant S239_07I/GpL16-k0 (antibody, human IgG1, kappa)
heavy 1: not shown
heavy 2: not shown
light: B1 light
notes: Heterodimerized antibody, alteration in one H chain only; also called He Ab S239I
B15: GpH7-A5/GpH7-B3 variant P238_20W/GpL16-k0 (antibody, human IgG1, kappa)
heavy 1: not shown
heavy 2: not shown
light: B1 light
notes: Heterodimerized antibody, alteration in one H chain only; also called He Ab P238W
B16: GpH7-A5/GpH7-B3 variant S239_18N/GpL16-k0 (antibody, human IgG1, kappa)
heavy 1: not shown
heavy 2: not shown
light: B1 light
notes: Heterodimerized antibody, alteration in one H chain only; also called He Ab S239N
B17: GpH7-A5/GpH7-B3 variant P271_08L/GpL16-k0 (antibody, human IgG1, kappa)
heavy 1: not shown
heavy 2: not shown
light: B1 light
notes: Heterodimerized antibody, alteration in one H chain only; also called He Ab P271L
B18: GpH7-A5/GpH7-B3 variant Y296_20W/GpL16-k0 (antibody, human IgG1, kappa)
heavy 1: not shown
heavy 2: not shown
light: B1 light
notes: Heterodimerized antibody, alteration in one H chain only; also called He Ab Y296W
B19: GpH7-A5/GpH7-B3 variant Y300_19Q/GpL16-k0 (antibody, human IgG1, kappa)
heavy 1: not shown
heavy 2: not shown
light: B1 light
notes: Heterodimerized antibody, alteration in one H chain only; also called He Ab Y300Q
B20: GpH7-A5/GpH7-B3 variant S267_03V/GpL16-k0 (antibody, human IgG1, kappa)
heavy 1: not shown
heavy 2: not shown
light: B1 light
notes: Heterodimerized antibody, alteration in one H chain only; also called He Ab S267V
B21: GpH7-A5/GpH7-B3 variant S239_06M/GpL16-k0 (antibody, human IgG1, kappa)
heavy 1: not shown
heavy 2: not shown
light: B1 light
notes: Heterodimerized antibody, alteration in one H chain only; also called He Ab S239M
B22: GpH7-A5/GpH7-B3 variant S239_01G/GpL16-k0 (antibody, human IgG1, kappa)
heavy 1: not shown
heavy 2: not shown
light: B1 light
notes: Heterodimerized antibody, alteration in one H chain only; also called He Ab S239G
B23: GpH7-A5/GpH7-B3 variant S267_06M/GpL16-k0 (antibody, human IgG1, kappa)
heavy 1: not shown
heavy 2: not shown
light: B1 light
notes: Heterodimerized antibody, alteration in one H chain only; also called He Ab S267M
B24: GpH7-A5/GpH7-B3 variant S267_07I/GpL16-k0 (antibody, human IgG1, kappa)
heavy 1: not shown
heavy 2: not shown
light: B1 light
notes: Heterodimerized antibody, alteration in one H chain only; also called He Ab S267I
B25: GpH7-A5/GpH7-B3 variant S239_05P/GpL16-k0 (antibody, human IgG1, kappa)
heavy 1: not shown
heavy 2: not shown
light: B1 light
notes: Heterodimerized antibody, alteration in one H chain only; also called He Ab S239P
B26: GpH7-A5/GpH7-B3 variant P271_09D/GpL16-k0 (antibody, human IgG1, kappa)
heavy 1: not shown
heavy 2: not shown
light: B1 light
notes: Heterodimerized antibody, alteration in one H chain only; also called He Ab P271D
B27: GpH7-A5/GpH7-B3 variant V266_06M/GpL16-k0 (antibody, human IgG1, kappa)
heavy 1: not shown
heavy 2: not shown
light: B1 light
notes: Heterodimerized antibody, alteration in one H chain only; also called He Ab V266M
B28: GpH7-A5/GpH7-B3 variant Y300_10E/GpL16-k0 (antibody, human IgG1, kappa)
heavy 1: not shown
heavy 2: not shown
light: B1 light
notes: Heterodimerized antibody, alteration in one H chain only; also called He Ab Y300E
B29: GpH7-A5/GpH7-B3 variant P238_19Q/GpL16-k0 (antibody, human IgG1, kappa)
heavy 1: not shown
heavy 2: not shown
light: B1 light
notes: Heterodimerized antibody, alteration in one H chain only; also called He Ab P238Q
B30: GpH7-A5/GpH7-B3 variant S267_01G/GpL16-k0 (antibody, human IgG1, kappa)
heavy 1: not shown
heavy 2: not shown
light: B1 light
notes: Heterodimerized antibody, alteration in one H chain only; also called He Ab S267G
B31: GpH7-A5/GpH7-B3 variant S298_08L/GpL16-k0 (antibody, human IgG1, kappa)
heavy 1: not shown
heavy 2: not shown
light: B1 light
notes: Heterodimerized antibody, alteration in one H chain only; also called He Ab S298L
B32: GpH7-A5/GpH7-B3 variant S267_14T/GpL16-k0 (antibody, human IgG1, kappa)
heavy 1: not shown
heavy 2: not shown
light: B1 light
notes: Heterodimerized antibody, alteration in one H chain only; also called He Ab S267T
B33: GpH7-A5/GpH7-B3 variant A327_01G/GpL16-k0 (antibody, human IgG1, kappa)
heavy 1: not shown
heavy 2: not shown
light: B1 light
notes: Heterodimerized anti-glypican-3 IgG1; mutation in the GpH7-B3 chain only; also called He Ab
B34: GpH7-A5/GpH7-B3 variant I332_02A/GpL16-k0 (antibody, human IgG1, kappa)
heavy 1: not shown
heavy 2: not shown
light: B1 light
notes: as for B33
B35: GpH7-A5/GpH7-B3 variant S239_03V/GpL16-k0 (antibody, human IgG1, kappa)
heavy 1: not shown
heavy 2: not shown
light: B1 light
notes: as for B33
B36: GpH7-A5/GpH7-B3 variant Y300_19Q/GpL16-k0 (antibody, human IgG1, kappa)
heavy 1: not shown
heavy 2: not shown
light: B1 light
notes: as for B33
B37: GpH7-A5/GpH7-B3 variant L328_19Q/GpL16-k0 (antibody, human IgG1, kappa)
heavy 1: not shown
heavy 2: not shown
light: B1 light
notes: as for B33

Molecular target: T1, FcγRIIa H (FcγRIIa type H, His at …)
Assay: SPR Biacore, relative binding, GpH7-B3/GpL16-k0 (HoCon Ab)=100
Experimental: Analysis of interaction between objective antibody and the FcγR was carried out using Biacore T100 (GE Healthcare). HBS-EP+ (GE Healthcare) was used as the running buffer, and the measurement temperature was set to 25° C. Chips produced by immobilizing the antigen peptide by the amine coupling method to a Series S Sencor Chip CM5 (GE Healthcare), or alternatively, chips produced by allowing preliminarily biotinylated antigen peptides to interact with and immobilize onto a Series S Sensor Chip SA (certified) (GE Healthcare) were used. Antibodies of interest were captured onto an antigen peptide-immobilized chip, and allowed to interact to each FcγR diluted with running buffer. To regenerate and repeatedly use the chip, the antibodies captured on the chip were washed off by reacting 10 mM glycine-HCl, pH 1.5.

Row | Binder | Ho/Con_2aH
1 | B1 | 119 % of control
2 | B2 | 122 % of control
3 | B3 | 136 % of control
4 | B4 | 111 % of control
5 | B5 | 101 % of control
6 | B6 | 110 % of control
7 | B7 | 126 % of control

Molecular target: T2, FcγRIIa H
Assay: SPR (Biacore), antibody captured, FcγR analyte; binding relative to GpH7-A5/GpH7-B3/GpL16-k0 = 100

Row | Binder | He/Con_2aH
8 | B8 | 61.3 % of control
9 | B9 | 29 % of control
10 | B10 | 45.9 % of control
11 | B11 | 98.1 % of control
12 | B12 | 63.1 % of control
13 | B13 | 91 % of control
14 | B14 | 91.5 % of control
15 | B15 | 59.5 % of control
16 | B16 | 94.2 % of control
17 | B17 | 86.7 % of control
18 | B18 | 97.6 % of control
19 | B19 | 96.1 % of control
20 | B20 | 50.8 % of control
21 | B21 | 98.6 % of control
22 | B22 | 97 % of control
23 | B23 | 34.3 % of control
24 | B24 | 34.7 % of control
25 | B25 | 33.3 % of control
26 | B26 | 70.1 % of control
27 | B27 | 83.9 % of control
28 | B28 | 97.2 % of control
29 | B29 | 56.4 % of control
30 | B30 | 71.3 % of control
31 | B31 | 85 % of control
32 | B32 | 63.3 % of control

Molecular target: T3, FcγRIIb
Assay: as above

Row | Binder | He/Con_2b
33 | B8 | 218 % of control
34 | B9 | 109 % of control
35 | B10 | 115 % of control
36 | B11 | 102 % of control
37 | B12 | 109 % of control
38 | B13 | 108 % of control
39 | B14 | 107 % of control
40 | B15 | 123 % of control
41 | B16 | 119 % of control
42 | B17 | 103 % of control
43 | B18 | 103 % of control
44 | B19 | 108 % of control
45 | B20 | 192 % of control
46 | B21 | 101 % of control
47 | B22 | 144 % of control
48 | B23 | 210 % of control
49 | B24 | 192 % of control
50 | B25 | 102 % of control
51 | B26 | 120 % of control
52 | B27 | 251 % of control
53 | B28 | 134 % of control
54 | B29 | 110 % of control
55 | B30 | 105 % of control
56 | B31 | 108 % of control
57 | B32 | 104 % of control

Molecular target: T4, FcγRIIb
Assay: SPR, relative to GpH7-A5/GpH7-B3/GpL16-k0

Row | Binder | He/Con_2b
58 | B33 | 116 control = 100
59 | B34 | 103 control = 100
60 | B35 | 108 control = 100
61 | B36 | 108 control = 100
62 | B37 | 105 control = 100

Molecular target: T5, FcγRIIa R
Assay: SPR, relative to GpH7-A5/GpH7-B3/GpL16-k0

Row | Binder | He/Con_2aR
63 | B33 | 98.2 control = 100
64 | B34 | 97.6 control = 100
65 | B35 | 99.9 control = 100
66 | B36 | 99.7 control = 100
67 | B37 | 89.3 control = 100
